The assay has as its target CeHSP17 protein (small heat shock protein from Caenorhabditis elegans) (Caenorhabditis elegans). As to the kind of experiment: cryo-EM structure; single particle 3D reconstruction, 14,217 particles, images obtained at 4°C, tetrahedral symmetry, 14.5 Å.

Experimental findings from publication PMC4351549 are described below.

One may read the stoichiometry N as the number of molecules, sites or subunits per partner or assembly.

Substance “CeHSP17 protein (small heat shock protein from Caenorhabditis elegans) (natural protein)” showed a stoichiometry N of 24 subunits.
